This is an account of results in paper PMC5576363.

Data set [1] has as its target T1, LbuC2c2-dHEPN1/dHEPN2 (Leptotrichia buccalis, UniProt C7NBY4 1-1159, R472A;H477A;R1048A;H1053A).
T1 sequence: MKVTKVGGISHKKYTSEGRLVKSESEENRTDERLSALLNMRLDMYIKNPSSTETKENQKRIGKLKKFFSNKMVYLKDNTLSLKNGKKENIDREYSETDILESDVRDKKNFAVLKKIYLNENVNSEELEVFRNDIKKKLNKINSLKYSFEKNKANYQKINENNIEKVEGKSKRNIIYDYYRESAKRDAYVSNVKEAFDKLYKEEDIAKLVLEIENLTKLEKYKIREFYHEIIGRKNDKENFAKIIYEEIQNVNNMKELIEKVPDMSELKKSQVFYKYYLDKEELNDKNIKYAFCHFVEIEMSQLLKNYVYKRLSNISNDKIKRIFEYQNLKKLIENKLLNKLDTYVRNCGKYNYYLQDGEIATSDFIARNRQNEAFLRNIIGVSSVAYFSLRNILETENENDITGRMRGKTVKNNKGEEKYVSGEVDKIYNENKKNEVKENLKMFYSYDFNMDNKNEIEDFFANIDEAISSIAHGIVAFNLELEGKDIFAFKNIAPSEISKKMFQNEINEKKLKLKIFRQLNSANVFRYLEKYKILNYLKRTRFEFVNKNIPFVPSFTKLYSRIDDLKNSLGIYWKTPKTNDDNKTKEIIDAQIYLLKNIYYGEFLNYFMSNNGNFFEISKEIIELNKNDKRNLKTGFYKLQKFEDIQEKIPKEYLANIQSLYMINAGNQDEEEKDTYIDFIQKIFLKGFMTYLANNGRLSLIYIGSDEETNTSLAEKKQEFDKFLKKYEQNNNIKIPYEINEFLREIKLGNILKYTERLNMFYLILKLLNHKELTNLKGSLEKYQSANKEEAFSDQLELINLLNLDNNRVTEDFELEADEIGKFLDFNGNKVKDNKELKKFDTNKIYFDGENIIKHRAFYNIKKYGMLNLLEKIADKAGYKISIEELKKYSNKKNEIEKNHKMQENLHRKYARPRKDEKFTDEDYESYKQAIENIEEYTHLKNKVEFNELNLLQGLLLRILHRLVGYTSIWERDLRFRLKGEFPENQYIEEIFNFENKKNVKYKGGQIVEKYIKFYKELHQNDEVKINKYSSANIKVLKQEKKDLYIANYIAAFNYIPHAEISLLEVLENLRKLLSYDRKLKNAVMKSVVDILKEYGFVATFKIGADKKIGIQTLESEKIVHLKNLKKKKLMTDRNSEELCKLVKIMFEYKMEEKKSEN
As to the kind of experiment: filter binding.

The target of data set [2] is T2, LbuC2c2-dHEPN2 (Leptotrichia buccalis, UniProt C7NBY4 1-1159, R1048A;H1053A).
T2 sequence: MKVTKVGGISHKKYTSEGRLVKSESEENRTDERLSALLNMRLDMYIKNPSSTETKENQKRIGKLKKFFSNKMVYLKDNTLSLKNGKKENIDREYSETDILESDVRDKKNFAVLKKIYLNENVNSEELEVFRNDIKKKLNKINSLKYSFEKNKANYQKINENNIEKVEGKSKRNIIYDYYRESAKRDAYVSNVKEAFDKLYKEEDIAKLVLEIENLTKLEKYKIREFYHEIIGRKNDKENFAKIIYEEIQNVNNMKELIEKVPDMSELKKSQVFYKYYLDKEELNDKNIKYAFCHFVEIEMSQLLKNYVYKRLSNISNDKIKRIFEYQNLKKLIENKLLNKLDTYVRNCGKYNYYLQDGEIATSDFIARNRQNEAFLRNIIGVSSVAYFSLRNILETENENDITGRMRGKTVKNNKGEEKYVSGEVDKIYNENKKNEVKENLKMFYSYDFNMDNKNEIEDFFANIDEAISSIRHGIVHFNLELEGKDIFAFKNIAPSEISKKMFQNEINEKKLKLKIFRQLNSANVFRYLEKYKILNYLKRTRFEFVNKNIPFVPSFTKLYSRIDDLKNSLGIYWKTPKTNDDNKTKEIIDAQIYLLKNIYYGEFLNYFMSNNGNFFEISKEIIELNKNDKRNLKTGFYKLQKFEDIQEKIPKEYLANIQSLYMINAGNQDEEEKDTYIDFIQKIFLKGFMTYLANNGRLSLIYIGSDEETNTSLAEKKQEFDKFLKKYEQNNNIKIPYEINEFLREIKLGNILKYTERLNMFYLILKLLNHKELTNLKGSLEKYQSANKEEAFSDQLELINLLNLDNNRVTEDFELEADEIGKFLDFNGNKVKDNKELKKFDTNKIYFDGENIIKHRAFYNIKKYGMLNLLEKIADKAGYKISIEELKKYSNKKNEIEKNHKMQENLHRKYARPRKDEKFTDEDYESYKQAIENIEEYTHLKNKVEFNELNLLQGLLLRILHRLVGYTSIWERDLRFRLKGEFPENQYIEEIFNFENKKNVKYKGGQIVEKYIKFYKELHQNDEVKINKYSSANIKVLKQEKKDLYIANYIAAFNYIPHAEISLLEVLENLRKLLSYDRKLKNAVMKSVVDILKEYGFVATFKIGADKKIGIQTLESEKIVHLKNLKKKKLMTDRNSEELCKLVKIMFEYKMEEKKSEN
Kind of data set: filter binding.

Data set [3] addresses T3, LbuC2c2-dHEPN1 (Leptotrichia buccalis, UniProt C7NBY4 1-1159, R472A;H477A).
T3 sequence: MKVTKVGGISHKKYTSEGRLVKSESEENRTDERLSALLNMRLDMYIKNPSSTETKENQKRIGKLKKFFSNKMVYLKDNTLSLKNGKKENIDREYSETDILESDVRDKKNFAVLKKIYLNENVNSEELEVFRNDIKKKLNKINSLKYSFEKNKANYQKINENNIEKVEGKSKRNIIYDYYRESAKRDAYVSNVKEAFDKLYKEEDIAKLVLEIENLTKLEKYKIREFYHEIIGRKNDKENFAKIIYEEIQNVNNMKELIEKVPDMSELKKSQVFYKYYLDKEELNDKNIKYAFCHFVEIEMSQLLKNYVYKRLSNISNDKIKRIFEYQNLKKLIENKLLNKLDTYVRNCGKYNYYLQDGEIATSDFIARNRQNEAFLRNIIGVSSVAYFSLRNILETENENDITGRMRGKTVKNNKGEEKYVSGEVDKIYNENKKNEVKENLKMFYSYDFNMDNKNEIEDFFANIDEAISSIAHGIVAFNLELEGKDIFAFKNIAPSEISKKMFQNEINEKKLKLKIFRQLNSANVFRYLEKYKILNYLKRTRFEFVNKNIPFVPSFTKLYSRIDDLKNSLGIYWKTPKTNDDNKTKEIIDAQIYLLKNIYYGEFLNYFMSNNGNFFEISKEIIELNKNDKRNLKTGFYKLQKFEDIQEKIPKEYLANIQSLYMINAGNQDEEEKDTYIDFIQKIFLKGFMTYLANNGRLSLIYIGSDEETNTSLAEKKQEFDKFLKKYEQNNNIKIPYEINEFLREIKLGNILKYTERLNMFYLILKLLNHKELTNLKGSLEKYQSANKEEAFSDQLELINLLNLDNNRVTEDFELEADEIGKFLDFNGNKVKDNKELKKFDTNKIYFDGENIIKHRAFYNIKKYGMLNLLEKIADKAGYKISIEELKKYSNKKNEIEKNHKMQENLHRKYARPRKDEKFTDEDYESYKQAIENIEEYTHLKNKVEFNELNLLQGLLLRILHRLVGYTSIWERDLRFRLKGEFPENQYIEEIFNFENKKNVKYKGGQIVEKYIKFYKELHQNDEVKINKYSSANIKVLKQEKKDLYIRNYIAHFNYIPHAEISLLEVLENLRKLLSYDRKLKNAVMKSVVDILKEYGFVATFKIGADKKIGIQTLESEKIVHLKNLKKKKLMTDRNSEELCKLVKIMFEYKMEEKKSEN
Kind of data set: filter binding.

Data set [4] addresses T1, LbuC2c2-dHEPN1/dHEPN2. As to the kind of experiment: EMSA.
The target of data set [5] is T4, LbuC2c2-R1079A (Leptotrichia buccalis, UniProt C7NBY4 1-1159, R1079A).
T4 sequence: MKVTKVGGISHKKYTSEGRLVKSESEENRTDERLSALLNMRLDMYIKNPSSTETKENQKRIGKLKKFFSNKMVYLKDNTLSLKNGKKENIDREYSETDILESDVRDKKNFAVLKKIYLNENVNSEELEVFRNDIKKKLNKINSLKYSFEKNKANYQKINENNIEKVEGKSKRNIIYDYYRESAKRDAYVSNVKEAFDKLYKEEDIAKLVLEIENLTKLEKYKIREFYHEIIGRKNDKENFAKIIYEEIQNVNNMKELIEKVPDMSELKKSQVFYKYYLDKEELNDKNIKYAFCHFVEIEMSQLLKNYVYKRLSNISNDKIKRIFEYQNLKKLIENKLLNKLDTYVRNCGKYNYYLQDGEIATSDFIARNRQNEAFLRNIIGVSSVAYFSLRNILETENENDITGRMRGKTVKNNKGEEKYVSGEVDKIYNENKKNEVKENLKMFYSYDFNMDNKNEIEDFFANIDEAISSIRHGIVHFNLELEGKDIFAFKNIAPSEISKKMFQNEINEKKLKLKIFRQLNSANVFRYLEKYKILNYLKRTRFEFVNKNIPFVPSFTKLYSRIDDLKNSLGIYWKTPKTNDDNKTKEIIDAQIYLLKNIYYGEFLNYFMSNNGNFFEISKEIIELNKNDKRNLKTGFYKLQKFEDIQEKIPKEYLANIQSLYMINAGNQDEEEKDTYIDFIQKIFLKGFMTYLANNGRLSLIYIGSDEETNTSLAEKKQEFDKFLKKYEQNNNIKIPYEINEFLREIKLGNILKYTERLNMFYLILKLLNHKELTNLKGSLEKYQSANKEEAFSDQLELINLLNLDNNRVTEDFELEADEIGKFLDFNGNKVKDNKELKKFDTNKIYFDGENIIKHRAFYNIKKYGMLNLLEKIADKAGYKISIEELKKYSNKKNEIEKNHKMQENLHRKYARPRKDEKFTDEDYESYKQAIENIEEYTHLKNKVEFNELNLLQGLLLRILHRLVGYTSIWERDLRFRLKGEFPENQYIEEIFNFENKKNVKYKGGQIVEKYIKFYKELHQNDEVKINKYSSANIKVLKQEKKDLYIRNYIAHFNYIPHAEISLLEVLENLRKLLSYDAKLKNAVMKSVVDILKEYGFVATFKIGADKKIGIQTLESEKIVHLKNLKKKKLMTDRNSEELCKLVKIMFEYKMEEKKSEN
As to the kind of experiment: filter binding.

B1: mature crRNA-A_GG (crLbu_A_GG_AES432) (structured_RNA)
RNA: GGCCACCCCAAAAAUGAAGGGGACUAAAACAGGGGCAGAGAUGAUGACCCU
Take B1: the figures for the Kd in data set [1], in data set [2] and in data set [3] were 43.3 ± 11.5 nM, 11.5 ± 2.5 nM and 15.2 ± 3.2 nM, respectively.

B2: crRNA-A_GG guide + on-target A ssRNA (mixed)
RNA 1: GGCCACCCCAAAAAUGAAGGGGACUAAAACAGGGGCAGAGAUGAUGACCCU
RNA 2: GGCACACCCGCAGGGGGGAGCCAAAAGGGUCAUCAUCUCUGCCCCCACAGCAGAAGCCCC
As for B2, the dissociation constant (Kd) (usually the concentration at which binding is half-saturated) in data set [4] is 1.62 ± 0.43 nM.

B3: mature crRNA-A_GA (crLbu_A_mature_GA_SCK340) (structured_RNA)
RNA: GACCACCCCAAAAAUGAAGGGGACUAAAACAGGGGCAGAGAUGAUGACCCU
B3 registered a Kd in data set [5] of 2.52 ± 0.5 nM.
